From the supplement of paper PMC12042874
± gives the uncertainty stated by the source.

experiment: amyloid nucleation score (Sup35N fusion, yeast selection) (log enrichment); library NNK2; higher = more nucleation; inactive = no reads after selection
Summary of the method: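 Libraries of peptides of 20 random codons fused to Sup35N were expressed in psi-negative yeast and induced 24 hours with 100 μM copper sulfate. Selection was 7 days at 30°C on medium lacking adenine and uracil, and plasmid inserts were Illumina-sequenced before and after selection. Nucleation score is the DiMSum log enrichment of output over input reads, centred on the mode score of non-aggregating sequences, and sequences with under 100 input reads were left out.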

Substance	amyloid nucleation score
NFSNVFWKFISRWLTAF	inactive
NFSYRSFNRLVRGRD	inactive
NFVLGKTSSVVCSHQSAALT	0.505 ± 0.18
NGDLIRDRECRANMRFIMRV	-1.21 ± 0.45
NGFHCG	inactive
NGNIKFFHRMRRTRHVACLY	0.223 ± 0.39
NGNTVVLGSLIFYKLVLVAS	5.64 ± 0.033
NGRRFLSYSVMLRDLRYRSC	0.138 ± 0.76
NGRTRCNPFLFGFKGRPGEC	-1.34 ± 1.1
NGVLRDHWTMAQTCAGVECS	-0.403 ± 1.1
NHGWLYGWVVVNYTFTTGVM	-1.63 ± 0.39
NHSVTWLPD	1.27 ± 0.41
NICIN	inactive
NICLGMCLYHGVSDAVDQSR	7.971 ± 0.055
NIFSWEAVEKARYAHSPLNN	-1.44 ± 1.1
NIGSVKN	0.098 ± 0.38
NIKFHVFDLCDSPHGWLPDR	0.224 ± 0.56
NILLMYFSLK	5.74 ± 0.049
NILNFMDS	-0.603 ± 1.1
NILRATTFCVDHLYSSFFCT	6.74 ± 0.068
NILWSNLGRMCRQLFAVFWS	-0.738 ± 0.62
NIPAYTSMTFVLWTIL	-0.153 ± 0.37

Substance	amyloid nucleation score
NIPLLLMFHSTIWFKMHIWE	1.51 ± 0.11
NIQTWGSGHVSTSDG	3.24 ± 0.089
NIVQEHTTCTEVRGVSALAR	0.436 ± 0.66
NIWRRSSSV	inactive
NKAHINW	0.476 ± 0.6
NKEECL	0.021 ± 0.35
NKLLHHFILGAEESLLEIMY	inactive
NKMTF	0.502 ± 0.44
NKNRKQSLDKPS	-0.493 ± 1.1
NKRSCNGCGSRAHQDSL	-0.176 ± 1.1
NKSGDSQLLRVYYIVLVFMW	-1.08 ± 0.62
NLDDYPG	1.66 ± 0.25
NLDEVFMFTSTHLVIPLESK	-1.6 ± 0.75
NLHVGREPQGSEYVDPFSVV	0.731 ± 0.25
NLIFI	inactive
NLLLLTVRKLNAVNMSTPPY	2.05 ± 0.21
NLLYKMTMWTKFGRLSSCCK	0.001 ± 0.42
NLRVSFGREDCL	-0.347 ± 0.55
NLSILTICMFLPVDFGI	6.525 ± 0.059
NLTYWLVLLRFKKLTDGEHE	-0.259 ± 0.3
NLVLRPR	inactive
NLWSSGKWLMCI	-0.292 ± 0.29

Substance	amyloid nucleation score
NMFNPFRFRISNYEVCSNMC	6.257 ± 0.043
NMIYYGVL	-1.24 ± 0.45
NMVHNDRSRKVKLSWCATFK	7.609 ± 0.058
NNDGTPDPNM	-0.237 ± 0.63
NNEFYRRYVGNYSLVMVMGN	-0.088 ± 1.1
NNFRWNVMVCYAFQGYSGVK	2.64 ± 0.068
NNKTKPVVFILSMYNYERFS	2.12 ± 0.25
NNNGV	1.45 ± 0.13
NNRSELVPKSANRMGFTSLA	-0.278 ± 0.29
NPALVFIHA	inactive
NPIGFFHDLGVWIWWSSMAT	-1.26 ± 1.1
NPLAIVAS	-1.77 ± 0.78
NPNELLLSSCFFHYLVKPWG	inactive
NPRGWAVEMVDYHSTFLKPE	5.64 ± 0.075
NPTHLLPHTEIGVLDTCAF	0.265 ± 1.1
NPTWVRCYWHFWFTVNGFQY	-1.17 ± 1.1
NPWVRFVVSCLYAVSQQCGL	4.66 ± 0.07
NPYIINLFCYKIVRLGAIFT	4.14 ± 0.068
NQDPRSRLLSNELYGCHFVL	-0.214 ± 0.28
NQFVVMDQVLVMWGCFDLTR	0.417 ± 0.46
NQKSLFVARETSTMFPSPYV	-0.141 ± 0.38
NQLRVLMTIFWPGMLNTPAV	0.622 ± 0.31

Substance	amyloid nucleation score
NQVSIIHWWAAYDYWSPM	-0.163 ± 0.6
NRAAKRGIRRHMSSYTYARV	0.153 ± 0.36
NRHMLNTDRRPQVRLHFGTL	0.232 ± 0.37
NRHPRRYRNNAGDDSLMRIL	1.74 ± 0.096
NRIFGTHLTFSGYS	-0.466 ± 0.5
NRLPFKYLSIDIYPCLASLA	-0.3 ± 0.26
NRMFLLVLFVEL	0.572 ± 0.27
NRSDPDLCNKC	1.96 ± 0.14
NRSIVYGYFQLYENFNWPFS	0.913 ± 0.19
NRSVCLYYFAQVYKCCSNAV	3.42 ± 0.14
NRTTSVWG	-0.889 ± 1
NRVGSIPIGPVFTADVAIVL	4.16 ± 0.091
NRVLSFPRWGAIYVYTMTEF	-0.892 ± 1.1
NRYVLCNLVVISVSGISLCT	7.249 ± 0.063
NSAVATYCVVGQVPEK	0.883 ± 0.44
NSEHTNLSSHLGNIRFINCL	0.037 ± 0.79
NSFMPMTWLPFRSQTEKRGS	3.73 ± 0.075
NSGCLSLGFRHLSNPWLHS	2.71 ± 0.096
NSHRKNHFIGGWDFTCEIYN	inactive
NSIGPTPGGN	0.123 ± 1
